T1: BRB1 tyrosine kinase substrate peptide
T1 chain: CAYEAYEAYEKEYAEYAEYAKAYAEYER

B1: FLT4 (protein)
chain: MRRPAHADIKTGYLSIIMDPGEVPLEEQCEYLSYDASQWEFPRERLHLGRVLGYGAFGKVVEASAFGIHKGSSCDTVAVKMLKEGATASEHRALMSELKILIHIGNHLNVVNLLGACTKPQGPLMVIVEFCKYGNLSNFLRAKRDAFSPCAEKSPEQRGRFRAMVELARLDRRRPGSSDRVLFARFSKTEGGARRASPDQEAEDLWLSPLTMEDLVCYSFQVARGMEFLASRKCIHRDLAARNILLSESDVVKICDFGLARDIYKDPDYVRKGSARLPLKWMAPESIFDKVYTTQSDVWSFGVLLWEIFSLGASPYPGVQINEEFCQRLRDGTRMRAPELATPAIRRIMLNCWSGDPKARPAFSELVEILGDLLQGRGLQEEEEVCMAPRSSQSSEEGSFSQVSTMALHIAQADAEDSPPSLQRHSLAARYYNWVSFPGCLARGAETRGSSRMKTFEEFPMTPTTYKGSVDNQTDSGMVLASEEFEQIESRHRQESGFS
B2: EphB4 (protein)
chain: LCLRKQSNGREAEYSDKHGQYLIGHGTKVYIDPFTYEDPNEAVREFAKEIDVSYVKIEEVIGAGEFGEVCRGRLKAPGKKESCVAIKTLKGGYTERQRREFLSEASIMGQFEHPNIIRLEGVVTNSMPVMILTEFMENGALDSFLRLNDGQFTVIQLVGMLRGIASGMRYLAEMSYVHRDLAARNILVNSNLVCKVSDFGLSRFLEENSSDPTYTSSLGGKIPIRWTAPEAIAFRKFTSASDAWSYGIVMWEVMSFGERPYWDMSNQDVINAIEQDYRLPPPPDCPTSLHQLMLDCWQKDRNARPRFPQVVSALDKMIRNPASLKIVARENGGASHPLLDQRQPHYSAFGSVGEWLRAIKMGRYEESFAAAGFGSFELVSQISAEDLLRIGVTLAGHQKKILASVQHMKSQAKPGTPGGTGGPAPQY
B3: FLT3 (protein)
chain: HKYKKQFRYESQLQMVQVTGSSDNEYFYVDFREYEYDLKWEFPRENLEFGKVLGSGAFGKVMNATAYGISKTGVSIQVAVKMLKEKADSSEREALMSELKMMTQLGSHENIVNLLGACTLSGPIYLIFEYCCYGDLLNYLRSKREKFHRTWTEIFKEHNFSFYPTFQSHPNSSMPGSREVQIHPDSDQISGLHGNSFHSEDEIEYENQKRLEEEEDLNVLTFEDLLCFAYQVAKGMEFLEFKSCVHRDLAARNVLVTHGKVVKICDFGLARDIMSDSNYVVRGNARLPVKWMAPESLFEGIYTIKSDVWSYGILLWEIFSLGVNPYPGIPVDANFYKLIQNGFKMDQPFYATEEIYIIMQSCWAFDSRKRPSFPNLTSFLGCQLADAEEAMYQNVDGRVSECPHTYQNRRPFSREMDLGLLSPQAQVEDS
B4: ARG (protein)
chain: GQQVGRVGEAPGLQQPQPRGIRGSSAARPSGRRRDPAGRTTETGFNIFTQHDHFASCVEDGFEGDKTGGSSPEALHRPYGCDVEPQALNEAIRWSSKENLLGATESDPNLFVALYDFVASGDNTLSITKGEKLRVLGYNQNGEWSEVRSKNGQGWVPSNYITPVNSLEKHSWYHGPVSRSAAEYLLSSLINGSFLVRESESSPGQLSISLRYEGRVYHYRINTTADGKVYVTAESRFSTLAELVHHHSTVADGLVTTLHYPAPKCNKPTVYGVSPIHDKWEMERTDITMKHKLGGGQYGEVYVGVWKKYSLTVAVKTLKEDTMEVEEFLKEAAVMKEIKHPNLVQLLGVCTLEPPFYIVTEYMPYGNLLDYLRECNREEVTAVVLLYMATQISSAMEYLEKKNFIHRDLAARNCLVGENHVVKVADFGLSRLMTGDTYTAHAGAKFPIKWTAPESLAYNTFSIKSDVWAFGVLLWEIATYGMSPYPGIDLSQVYDLLEKGYRMEQPEGCPPKVYELMRACWKWSPADRPSFAETHQAFETMFHDSSISEEVAEELGRAASSSSVVPYLPRLPILPSKTRTLKKQVENKENIEGAQDATENSASSLAPGFIRGAQASSGSPALPRKQRDKSPSSLLEDAKETCFTRDRKGGFFSSFMKKRNAPTPPKRSSSFREMENQPHKKYELTGNFSSVASLQHADGFSFTPAQQEANLVPPKCYGGSFAQRNLCNDDGGGGGGSGTAGGGWSGITGFFTPRLIKKTLGLRAGKPTASDDTSKPFPRSNSTSSMSSGLPEQDRMAMTLPRNCQRSKLQLERTVSTSSQPEENVDRANDMLPKKSEESAAPSRERPKAKLLPRGATALPLRTPSGDLAITEKDPPGVGVAGVAAAPKGKEKNGGARLGMAGVPEDGEQPGWPSPAKAAPVLPTTHNHKVPVLISPTLKHTPADVQLIGTDSQGNKFKLLSEHQVTSSGDKDRPRRVKPKCAPPPPPVMRLLQHPSICSDPTEEPTALTAGQSTSETQEGGKKAALGAVPISGKAGRPVMPPPQVPLPTSSISPAKMANGTAGTKVALRKTKQAAEKISADKISKEALLECADLLSSALTEPVPNSQLVDTGHQLLDYCSGYVDCIPQTRNKFAFREAVSKLELSLQELQVSSAAAGVPGTNPVLNNLLSCVQEISDVVQR
B5: FGFR3 (protein)
chain: RLRSPPKKGLGSPTVHKISRFPLKRQVSLESNASMSSNTPLVRIARLSSGEGPTLANVSELELPADPKWELSRARLTLGKPLGEGCFGQVVMAEAIGIDKDRAAKPVTVAVKMLKDDATDKDLSDLVSEMEMMKMIGKHKNIINLLGACTQGGPLYVLVEYAAKGNLREFLRARRPPGLDYSFDTCKPPEEQLTFKDLVSCAYQVARGMEYLASQKCIHRDLAARNVLVTEDNVMKIADFGLARDVHNLDYYKKTTNGRLPVKWMAPEALFDRVYTHQSDVWSFGVLLWEIFTLGGSPYPGIPVEELFKLLKEGHRMDKPANCTHDLYMIMRECWHAAPSQRPTFKQLVEDLDRVLTVTSTDEYLDLSAPFEQYSPGGQDTPSSSSSGDDSVFAHDLLPPAPPSSGGSRT
B6: FGFR2 (protein)
chain: RMKNTTKKPDFSSQPAVHKLTKRIPLRRQVTVSAESSSSMNSNTPLVRITTRLSSTADTPMLAGVSEYELPEDPKWEFPRDKLTLGKPLGEGCFGQVVMAEAVGIDKDKPKEAVTVAVKMLKDDATEKDLSDLVSEMEMMKMIGKHKNIINLLGACTQDGPLYVIVEYASKGNLREYLRARRPPGMEYSYDINRVPEEQMTFKDLVSCTYQLARGMEYLASQKCIHRDLAARNVLVTENNVMKIADFGLARDINNIDYYKKTTNGRLPVKWMAPEALFDRVYTHQSDVWSFGVLMWEIFTLGGSPYPGIPVEELFKLLKEGHRMDKPANCTNELYMMMRDCWHAVPSQRPTFKQLVEDLDRILTLTTNEEYLDLSQPLEQYSPSYPDTRSSCSSGDDSVFSPDPMPYEPCLPQYPHINGSVKT
B7: FGFR4 (protein)
chain: RGQALHGRHPRPPATVQKLSRFPLARQFSLESGSSGKSSSSLVRGVRLSSSGPALLAGLVSLDLPLDPLWEFPRDRLVLGKPLGEGCFGQVVRAEAFGMDPARPDQASTVAVKMLKDNASDKDLADLVSEMEVMKLIGRHKNIINLLGVCTQEGPLYVIVECAAKGNLREFLRARRPPGPDLSPDGPRSSEGPLSFPVLVSCAYQVARGMQYLESRKCIHRDLAARNVLVTEDNVMKIADFGLARGVHHIDYYKKTSNGRLPVKWMAPEALFDRVYTHQSDVWSFGILLWEIFTLGGSPYPGIPVEELFSLLREGHRMDRPPHCPPELYGLMRECWHAAPSQRPTFKQLVEALDKVLLAVSEEYLDLRLTFGPYSPSGGDASSTCSSSDSVFSHDPLPLGSSSFPFGSGVQT
B8: FMS (CSFR) (protein)
chain: KYKQKPKYQVRWKIIESYEGNSYTFIDPTQLPYNEKWEFPRNNLQFGKTLGAGAFGKVVEATAFGLGKEDAVLKVAVKMLKSTAHADEKEALMSELKIMSHLGQHENIVNLLGACTHGGPVLVITEYCCYGDLLNFLRRKAEAMLGPSLSPGQDPEGGVDYKNIHLEKKYVRRDSGFSSQGVDTYVEMRPVSTSSNDSFSEQDLDKEDGRPLELRDLLHFSSQVAQGMAFLASKNCIHRDVAARNVLLTNGHVAKIGDFGLARDIMNDSNYIVKGNARLPVKWMAPESIFDCVYTVQSDVWSYGILLWEIFSLGLNPYPGILVNSKFYKLVKDGYQMAQPAFAPKNIYSIMQACWALEPTHRPTFQQICSFLQEQAQEDRRERDYTNLPSSSRSGGSGSSSSELEEESSSEHLTCCEQGDIAQPLLQPNNYQFC
B9: FLT1 (protein)
chain: RKMKRSSSEIKTDYLSIIMDPDEVPLDEQCERLPYDASKWEFARERLKLGKSLGRGAFGKVVQASAFGIKKSPTCRTVAVKMLKEGATASEYKALMTELKILTHIGHHLNVVNLLGACTKQGGPLMVIVEYCKYGNLSNYLKSKRDLFFLNKDAALHMEPKKEKMEPGLEQGKKPRLDSVTSSESFASSGFQEDKSLSDVEEEEDSDGFYKEPITMEDLISYSFQVARGMEFLSSRKCIHRDLAARNILLSENNVVKICDFGLARDIYKNPDYVRKGDTRLPLKWMAPESIFDKIYSTKSDVWSYGVLLWEIFSLGGSPYPGVQMDEDFCSRLREGMRMRAPEYSTPEIYQIMLDCWHRDPKERPRFAELVEKLGDLLQANVQQDGKDYIPINAILTGNSGFTYSTPAFSEDFFKESISAPKFNSGSSDDVRYVNAFKFMSLERIKTFEELLPNATSMFDDYQGDSSTLLASPMLKRFTWTDSKPKASLKIDLRVTSKSKESGLSDVSRPSFCHSSCGHVSEGKRRFTYDHAELERKIACCSPPPDYNSVVLYSTPPI
B10: EphB3 (protein)
chain: CLRKQRHGSDSEYTEKLQQYIAPGMKVYIDPFTYEDPNEAVREFAKEIDVSCVKIEEVIGAGEFGEVCRGRLKQPGRREVFVAIKTLKVGYTERQRRDFLSEASIMGQFDHPNIIRLEGVVTKSRPVMILTEFMENCALDSFLRLNDGQFTVIQLVGMLRGIAAGMKYLSEMNYVHRDLAARNILVNSNLVCKVSDFGLSRFLEDDPSDPTYTSSLGGKIPIRWTAPEAIAYRKFTSASDVWSYGIVMWEVMSYGERPYWDMSNQDVINAVEQDYRLPPPMDCPTALHQLMLDCWVRDRNLRPKFSQIVNTLDKLIRNAASLKVIASAQSGMSQPLLDRTVPDYTTFTTVGDWLDAIKMGRYKESFVSAGFASFDLVAQMTAEDLLRIGVTLAGHQKKILSSIQDMRLQMNQTLPVQV
B11: EphB2 (protein)
chain: CNRRGFERADSEYTDKLQHYTSGHMTPGMKIYIDPFTYEDPNEAVREFAKEIDISCVKIEQVIGAGEFGEVCSGHLKLPGKREIFVAIKTLKSGYTEKQRRDFLSEASIMGQFDHPNVIHLEGVVTKSTPVMIITEFMENGSLDSFLRQNDGQFTVIQLVGMLRGIAAGMKYLADMNYVHRDLAARNILVNSNLVCKVSDFGLSRFLEDDTSDPTYTSALGGKIPIRWTAPEAIQYRKFTSASDVWSYGIVMWEVMSYGERPYWDMTNQDVINAIEQDYRLPPPMDCPSALHQLMLDCWQKDRNHRPKFGQIVNTLDKMIRNPNSLKAMAPLSSGINLPLLDRTIPDYTSFNTVDEWLEAIKMGQYKESFANAGFTSFDVVSQMMMEDILRVGVTLAGHQKKILNSIQVMRAQMNQIQSVEG

Target: T1, BRB1 tyrosine kinase substrate peptide

Row | Protein | Signal to Noise ratio with BRB1 Peptide (TR-FRET kinase assay; kinase 0.25 nM) | other results
1 | B1 | 20 | –
2 | B2 | – | Signal to Noise ratio with BRB1 Peptide (TR-FRET kinase assay; kinase 0.5 nM): 29.8
3 | B3 | – | Signal to Noise ratio with BRB1 Peptide (TR-FRET kinase assay; kinase 0.1 nM): 25.9
4 | B4 | – | Signal to Noise ratio with BRB1 Peptide (TR-FRET kinase assay; kinase 0.5 nM): 10.6
5 | B5 | 24.4 | –
6 | B6 | 27.1 | –
7 | B7 | – | Signal to Noise Ratio with BRB1 Peptide (TR-FRET kinase assay; kinase 3 nM): 17.7
8 | B8 | 3 | –
9 | B9 | 4.1 | –
10 | B10 | – | Signal to Noise ratio with BRB1 Peptide (TR-FRET kinase assay; kinase 0.1 nM): 24.7
11 | B11 | 28.8 | –
